Experimental findings from patent publication US20250270287A1 (KEROS THERAPEUTICS, published 2025) are described below.

Positions count from the first letter of the chain named.

The target of assay [1] is T1, Activin A (UniProt P08476 311-426).
T1 sequence (looked up): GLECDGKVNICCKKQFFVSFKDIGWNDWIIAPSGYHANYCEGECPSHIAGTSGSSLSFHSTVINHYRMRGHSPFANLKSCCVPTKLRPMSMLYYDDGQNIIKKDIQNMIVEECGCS
In words: cell-based or functional assay.

Assay [2] has as its target T2, GDF-11 (UniProt O95390 299-407).
T2 sequence (looked up): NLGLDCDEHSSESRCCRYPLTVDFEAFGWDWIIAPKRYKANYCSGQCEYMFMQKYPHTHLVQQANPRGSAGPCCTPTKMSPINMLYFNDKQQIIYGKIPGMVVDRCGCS
The assay can be described thus: cell-based or functional assay.

For assay [3], the target named is T3, BMP-9 (UniProt Q9UK05 320-429).
T3 sequence (looked up): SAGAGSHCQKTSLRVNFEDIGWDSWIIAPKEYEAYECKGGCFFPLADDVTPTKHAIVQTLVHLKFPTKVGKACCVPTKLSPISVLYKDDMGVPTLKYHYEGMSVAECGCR
In words: cell-based or functional assay.

Assay [4] addresses T4, Activin B (UniProt P09529 293-407).
T4 sequence (looked up): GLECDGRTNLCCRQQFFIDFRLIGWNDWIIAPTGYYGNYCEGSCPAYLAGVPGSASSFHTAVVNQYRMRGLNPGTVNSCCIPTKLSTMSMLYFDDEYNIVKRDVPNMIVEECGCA
The assay can be described thus: cell-based or functional assay.

For assay [5], the target named is T1, Activin A. In words: SPR (Biacore 8K), Fc protein captured on anti-human IgG, ligand injected. The method, then:
(§1) The Cytiva Biacore 8k was used to measure the kinetics of the interactions between the ActRII- and chimera-Fc proteins and Activin A/Activin B/growth differentiation factor 8 (GDF-8)/GDF-11/BMP-9/BMP-10. Series S CM4 Sensor Chips were immobilized with anti-human capture antibody using the reagents and protocol in the Biacore Human Antibody Capture Kit (GE Life Sciences). Briefly, anti-human IgG was diluted to 25 μg/mL in immobilization buffer. The carboxylated surface of the sensor was activated by injecting a mixture of EDC and NHS. The anti-human IgG was injected into the activated sensor chip flow cells at 10 μL/min for a total of 7 minutes until the chip reached an immobilization level of 3000 resonance units (RU). Ethanolamine was injected to deactivate the sensor surfaces. The chip has 8 flow cells to be used for binding analysis, each with an in-line reference surface to subtract instrument noise and non-specific binding to the sensor chip. The ActRII- and chimera-Fc proteins were captured in their own flow cell to allow for a maximum analyte binding response of 20-30 RU. This was done by injecting 10-20 μL of the ActRII- and chimera-Fc proteins into the flow cells at a concentration of 2 μg/mL until 60-90 RU was captured. Ligand at a single concentration was injected at […] for 60 seconds and then allowed to dissociate under buffer flow for no less than 5 minutes. After the cycle completed, captured protein was stripped from the chip with an injection of 3 M magnesium chloride, the regeneration buffer provided with the Biacore Human Antibody Capture Kit. Each ligand was injected in a concentration series, including a buffer only 0 nM concentration to serve as a double reference for subtracting out instrument noise. The data were analyzed using the Biacore Insight Evaluation Software.
In general terms: In SPR one partner is held on a chip, and binding of the other changes the refractive index at the surface.

Assay [6] has as its target T4, Activin B. The description is as above. The method, then: as §1
The target in assay [7] is T2, GDF-11. Described as above. The method, then: as §1
Assay [8] deals with T5, growth differentiation factor 8 (GDF-8) (UniProt O14793 267-375).
T5 construct: also called myostatin
T5 sequence (looked up): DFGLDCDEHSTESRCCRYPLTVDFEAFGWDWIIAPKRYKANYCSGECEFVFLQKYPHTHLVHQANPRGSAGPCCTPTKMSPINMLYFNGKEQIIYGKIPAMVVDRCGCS
The description is as above. The method, then: as §1

Assay [9] deals with T3, BMP-9. The assay is described as above. The method, then: as §1
A further assay has as its target T6, BMP-10 (UniProt O95393 317-424).
T6 sequence (looked up): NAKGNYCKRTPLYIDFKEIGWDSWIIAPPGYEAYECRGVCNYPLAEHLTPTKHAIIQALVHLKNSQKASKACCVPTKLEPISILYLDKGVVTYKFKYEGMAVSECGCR
The assay is described as above. The method, then:
as §1

B1: ActRIIB-A1 (SEQ ID NO: 120) chimera-Fc protein (Fc fusion, not shown: a dimerising Fc or GST)
chain: GAILGRSETQECIYYNANWELERTNQSGLERCEGEQDKRLHCYASWRNSSGTIELVKKGCWLDDFNCYDRQECVATEENPQVYFCCCEGNFCNERFTHLPEAGGPEVTYEPPPTAPT
In the case of B1, the “IC50, SBE-luciferase reporter in HEK293 cells” value (“IC50, SBE-luciferase reporter” for short) worked out at 0.075 µg/mL with Activin A [1], 0.14 µg/mL in the assay with GDF-11 [2] and 0.072 µg/mL in the assay with Activin B [4]. In the assay with BMP-9 [3], the “IC50, BRE-luciferase reporter in C2C12 cells” value (from here on “IC50, BRE-luciferase reporter”) came to 0.14 µg/mL.

B2: ActRIIB (SEQ ID NO: 31) Fc protein (Fc fusion)
chain: GRGEAETRECIYYNANWELERTNQSGLERCEGEQDKRLHCYASWRNSSGTIELVKKGCWLDDFNCYDRQECVATEENPQVYFCCCEGNFCNERFTHLPEAGGPEVTYEPPPTAPT
notes: also called ActRII-Fc; wild-type extracellular ActRIIB; not shown: linker (if any) and Fc domain
Usually Kd stands for the equilibrium constant for the complex coming apart. Consider B2, for which the Kd in the assay with Activin A [5] is 0.0106 nM; with Activin B [6] it was under 0.001 nM.

B3: ActRIIB-A5 (SEQ ID NO: 123) chimera-Fc protein (Fc fusion)
chain: B2 chain with F63I, Q69T, E70D
notes: Tested as chimera-Fc protein; not shown: linker (if any) and Fc domain
B3: the Kd with Activin A [5] is 0.0228 nM; with GDF-11 [7], 0.00566 nM; in assay [8], 0.0165 nM; with BMP-9 [9] it was 0.143 nM; with Activin B [6], 0.00491 nM; in the assay with BMP-10, 0.0152 nM. For the same molecule, the “IC50, SBE-luciferase reporter” value with Activin A [1] is 0.057 µg/mL; with GDF-11 [2], 0.13 µg/mL; in the assay with Activin B [4] it was 0.072 µg/mL. The “IC50, BRE-luciferase reporter” value with BMP-9 [3] was determined as 0.4 µg/mL.

B4: ActRIIB-B3 (SEQ ID NO: 112) chimera-Fc protein (Fc fusion)
chain: B2 chain with L38R, Y41F, S43T, R45K, S47I
notes: as for B3
Consider B4, for which the Kd was found to be 0.00152 nM in the assay with Activin A [5]; 0.00117 nM with GDF-11 [7]; 0.0104 nM in [8]; 0.361 nM with BMP-9 [9]; 0.00581 nM with Activin B [6]; 0.175 nM with BMP-10. For the same molecule, the “IC50, SBE-luciferase reporter” value in the assay with Activin A [1] was determined as 0.07 µg/mL; with GDF-11 [2], 0.14 µg/mL; with Activin B [4] it was 0.096 µg/mL. In addition, in the assay with BMP-9 [3], the “IC50, BRE-luciferase reporter” value was 0.41 µg/mL.

B5: ActRIIB-A6 (SEQ ID NO: 124) chimera-Fc protein (Fc fusion)
chain: B2 chain with E75K, E76D, N77S, Q79E
notes: as for B3
With B5, the Kd with Activin A [5] was 0.0104 nM; with GDF-11 [7] it was under 0.001 nM; in assay [8], 0.0288 nM; with BMP-9 [9], 0.00962 nM; in the assay with Activin B [6] it was 0.001 nM; with BMP-10 it was 0.00969 nM. In addition, the “IC50, SBE-luciferase reporter” value was found to be 0.089 µg/mL in the assay with Activin A [1], 0.25 µg/mL with GDF-11 [2] and 0.14 µg/mL with Activin B [4]. For the same molecule, the “IC50, BRE-luciferase reporter” value in the assay with BMP-9 [3] came out at 0.23 µg/mL.

B6: ActRIIB-B5 (SEQ ID NO: 114) chimera-Fc protein (Fc fusion)
chain: B2 chain with A73E, T74K
notes: as for B3
For B6, the Kd in the assay with Activin A [5] is 0.00327 nM; with GDF-11 [7], under 0.001 nM; in [8], 0.0102 nM; with BMP-9 [9], 0.0632 nM; with Activin B [6], 0.0158 nM; with BMP-10, 0.0414 nM. The “IC50, SBE-luciferase reporter” value with Activin A [1] came out at 0.069 µg/mL; in the assay with GDF-11 [2] it was 0.096 µg/mL; with Activin B [4] it was 0.11 µg/mL. Moreover, the “IC50, BRE-luciferase reporter” value with BMP-9 [3] turned out to be 0.022 µg/mL.

B7: ActRIIB-A7 (SEQ ID NO: 125) chimera-Fc protein (Fc fusion)
chain: B2 chain with F89M
notes: as for B3
For B7, the Kd in the assay with Activin A [5] was 0.0169 nM; with GDF-11 [7] it was under 0.001 nM; in assay [8] it was under 0.001 nM; in the assay with BMP-9 [9] it was 0.0191 nM; with Activin B [6] it was under 0.001 nM; with BMP-10, 0.00872 nM. For the same molecule, the “IC50, SBE-luciferase reporter” value is 0.057 µg/mL in the assay with Activin A [1], 0.13 µg/mL with GDF-11 [2] and 0.073 µg/mL with Activin B [4]. Besides, the “IC50, BRE-luciferase reporter” value in the assay with BMP-9 [3] came to 0.061 µg/mL.

B8: ActRIIB-B1B7 (SEQ ID NO: 116) chimera-Fc protein (Fc fusion)
chain: B2 chain with I11L, Y12F, Y13F, R93K, T95S, H96Y, L97F
notes: as for B3
On to B8, for which the Kd with Activin A [5] is under 0.001 nM; in the assay with GDF-11 [7], under 0.001 nM; in assay [8], 0.00353 nM; with BMP-9 [9] it was 18.6 nM; with Activin B [6], under 0.001 nM; with BMP-10, 0.0156 nM. Besides, the “IC50, SBE-luciferase reporter” value amounted to 0.094 µg/mL with Activin A [1], 0.14 µg/mL in the assay with GDF-11 [2] and 0.18 µg/mL with Activin B [4]. Further, in the assay with BMP-9 [3], the “IC50, BRE-luciferase reporter” value came out at 0.067 µg/mL.

B9: ActRIIB-A3 (SEQ ID NO: 122) chimera-Fc protein (Fc fusion)
chain: B2 chain with E31Y, E33D, Q34K
notes: as for B3
Take B9: the Kd is 0.0165 nM with Activin A [5]; under 0.001 nM with GDF-11 [7]; under 0.001 nM in assay [8]; 0.0123 nM with BMP-9 [9]; under 0.001 nM with Activin B [6]; 0.0159 nM with BMP-10. Also, the “IC50, SBE-luciferase reporter” value came out at 0.056 µg/mL with Activin A [1], 0.15 µg/mL in the assay with GDF-11 [2] and 0.075 µg/mL in the assay with Activin B [4]. The “IC50, BRE-luciferase reporter” value with BMP-9 [3] worked out at 0.1 µg/mL.

B10: ActRIIB-B2 (SEQ ID NO: 111) chimera-Fc protein (Fc fusion)
chain: B2 chain with S25T, L27V, R29P
notes: as for B3
On to B10, for which the Kd was under 0.001 nM with Activin A [5]; under 0.001 nM in the assay with GDF-11 [7]; under 0.001 nM in assay [8]; 0.00327 nM in the assay with BMP-9 [9]; 0.0116 nM with Activin B [6]; 0.0205 nM with BMP-10. Further, the “IC50, SBE-luciferase reporter” value in the assay with Activin A [1] is 0.14 µg/mL; with GDF-11 [2], 0.27 µg/mL; in the assay with Activin B [4], 0.17 µg/mL. The “IC50, BRE-luciferase reporter” value with BMP-9 [3] was 0.3 µg/mL.

B11: ActRIIB-B1B4 (SEQ ID NO: 117) chimera-Fc protein (Fc fusion)
chain: B2 chain with I11L, Y12F, Y13F, T50S, L53I, K56Q
notes: as for B3
In the case of B11, the Kd was 0.0108 nM in the assay with Activin A [5]; 0.0292 nM with GDF-11 [7]; 0.0718 nM in assay [8]; 0.0398 nM with BMP-9 [9]; 0.0702 nM with Activin B [6]; 0.0761 nM with BMP-10. Also, the “IC50, SBE-luciferase reporter” value in the assay with Activin A [1] worked out at 0.35 µg/mL; with GDF-11 [2], 0.77 µg/mL; in the assay with Activin B [4], 0.34 µg/mL. Further, the “IC50, BRE-luciferase reporter” value in the assay with BMP-9 [3] came to 0.39 µg/mL.

B12: ActRIIB-A2 (SEQ ID NO: 121) chimera-Fc protein (Fc fusion)
chain: B2 chain with L19K, E20D
notes: as for B3
Consider B12, for which the Kd was 0.0347 nM in the assay with Activin A [5]; under 0.001 nM in the assay with GDF-11 [7]; 0.0393 nM in [8]; 0.0166 nM with BMP-9 [9]; 0.00878 nM with Activin B [6]; 0.0298 nM with BMP-10. In addition, the results for the “IC50, SBE-luciferase reporter” value with Activin A [1], with GDF-11 [2] and with Activin B [4] were 0.078 µg/mL, 0.3 µg/mL and 0.13 µg/mL, respectively. Besides, the “IC50, BRE-luciferase reporter” value in the assay with BMP-9 [3] is 0.082 µg/mL.
